The record followed here is US11344606B2, “Parathyroid hormone fusion polypeptide” (University of Sheffield, priority 2017, dated 2022).

Assay [1] concerns UMR-106 cells (PTH responsive cell line). Kind of assay: In vitro induction of cAMP in UMR-106 cells (cAMP ELISA). In kind it is cell-based, rat. Here is the method:
FIG. 3: In Vitro Bioactivity of 14A1 and 14A2 proteins. Purified proteins were tested for their ability to stimulate cAMP production from the PTH responsive cell line, UMR-106 (rat osteoblastic like cell line). Cells were stimulated for 15 minutes in the presence of test molecules and cAMP levels measured from cell lysates using a cAMP specific Elisa. […] Data is presented as pmol cAMP/ml+/−Standard deviation;
FIG. 29A: In vitro induction of cAMP. […] Cells were lysed and cAMP levels measured using an R & D systems Parameter cAMP Elisa. Data are presented as log pmol cAMP/ml±SD. […] Average of n=1 experiment carried out in duplicate.
Purified proteins were tested for their ability to stimulate cAMP production from the PTH responsive cell line, UMR-106 (rat osteoblastic like cell line). Cells were stimulated for 15 minutes in the presence of test molecules and cAMP levels measured from cell lysates using a cAMP specific Elisa (R&D systems).

The subject of assay [2] is UMR-106 cells. Kind of assay: Dual Luciferase Reporter Assay for cAMP activity (pGL4.29/CRE/Luc2) in UMR-106 cells. In kind it is cell-based, rat. The note with it: FIG. 29D.
Text: Cells were lysed and Luciferase activity measured using the Promega Dual Luciferase Assay kit. Data are presented as fold induction of control±SD. […] Average of triplicate values. […] Representative of 3 separate experiments.
Cells were lysed and Luciferase activity measured using the Promega Dual Luciferase Assay kit. Data are presented as fold induction of control±SD.
FIG. 29D: Determination of EC50 values for PTH & PTH fusions using the Dual Luciferase Reporter Assay.
[3] abbreviates: 500 nM PTH fusion, 15 minutes at 37° C./5% CO2, FIG. 29A, n=1 experiment in duplicate.

For `CC[C@H](C)[C@H](NC(=O)[C@H](CCC(=O)O)NC(=O)[C@H](CO)NC(=O)[C@@H](NC(=O)[C@@H](N)CO)C(C)C)C(=O)N[C@@H](CCC(N)=O)C(=O)N[C@@H](CC(C)C)C(=O)N[C@@H](CCSC)C(=O)N[C@@H](Cc1c[nH]cn1)C(=O)N[C@@H](CC(N)=O)C(=O)N[C@@H](CC(C)C)C(=O)NCC(=O)N[C@@H](CCCCN)C(=O)N[C@@H](Cc1c[nH]cn1)C(=O)N[C@@H](CC(C)C)C(=O)N[C@@H](CC(N)=O)C(=O)N[C@@H](CO)C(=O)N[C@@H](CCSC)C(=O)N[C@@H](CCC(=O)O)C(=O)N[C@@H](CCCNC(=N)N)C(=O)N[C@H](C(=O)N[C@@H](CCC(=O)O)C(=O)N[C@@H](Cc1c[nH]c2ccccc12)C(=O)N[C@@H](CC(C)C)C(=O)N[C@@H](CCCNC(=N)N)C(=O)N[C@@H](CCCCN)C(=O)N[C@@H](CCCCN)C(=O)N[C@@H](CC(C)C)C(=O)N[C@@H](CCC(N)=O)C(=O)N[C@@H](CC(=O)O)C(=O)N[C@H](C(=O)N[C@@H](Cc1c[nH]cn1)C(=O)N[C@@H](CC(N)=O)C(=O)N[C@@H](Cc1ccccc1)C(=O)O)C(C)C)C(C)C` [PTH 1-34, reference compound], the “cAMP levels (mean±SD)” value in assay [1] (100 nM human PTH 1-34, 15 minutes at 37° C./5% CO2, FIG. 29A) amounted to 2551±186 pmol cAMP/ml.

B1: 14A3b: GHss-PTH (1-34)-(g4s)4-PTHrExt-(g4s)4-GHbp, SEQ ID NO: 14 (protein)
chain: MATGSRTSLLLAFGLLCLPWLQEGSASVSEIQLMHNLGKHLNSMERVEWLRKKLQDVHNFGGGGSGGGGSGGGGSGGGGSDDVMTKEEQIFLLHRAQAQCEKRLKEVLQRPASIMESDKGWTSASTSGKPRKDKASGKLYPESEEDKEAPTGSRYRGRPCLPEWDHILCWPLGAPGEVVAVPCPDYIYDFNHKGHAYRRCDRNGSWELVPGHNRTWANYSECVKFLTNETREREVFDRLGGGGSGGGGSGGGGSGGGGSFSGSEATAAILSRAPWSLQSVNPGLKTNSSKEPKFTKCRSPERETFSCHWTDEVHHGTKNLGPIQLFYTRRNTQEWTQEWKECPDYVSAGENSCYFNSSFTSIAIPYCIKLTSNGGTVDEKCFSVDEIVQPDPPIALNWTLLNVSLTGIHADIQVRWEAPRNADIQKGWMVLEYELQYKEVNETKWKMMDPILTTSVPVYSLKVDKEYEVRVRSKQRNSGNYGEFSEVLYVTLPQMSQ
modifications: Fusion proteins
B1: the “cAMP levels (mean±SD)” value in assay [1] (setting [3]) came out at 25±0.95 pmol cAMP/ml. Further, the “fold by which PTH is more potent than the fusion (EC50 ratio)” value in assay [2] stood at 28 fold.

B2: 14A2c: PTHss-pp-PTH (1-34)-(g4s)4-PTHrExt-(g4s)4-GHbp, SEQ ID NO: 13 (protein)
chain: MIPAKDMAKVMIVMLAICFLTKSDGKSVKKRSVSEIQLMHNLGKHLNSMERVEWLRKKLQDVHNFGGGGSGGGGSGGGGSGGGGSDDVMTKEEQIFLLHRAQAQCEKRLKEVLQRPASIMESDKGWTSASTSGKPRKDKASGKLYPESEEDKEAPTGSRYRGRPCLPEWDHILCWPLGAPGEVVAVPCPDYIYDFNHKGHAYRRCDRNGSWELVPGHNRTWANYSECVKFLTNETREREVFDRLGGGGSGGGGSGGGGSGGGGSFSGSEATAAILSRAPWSLQSVNPGLKTNSSKEPKFTKCRSPERETFSCHWTDEVHHGTKNLGPIQLFYTRRNTQEWTQEWKECPDYVSAGENSCYFNSSFTSIAIPYCIKLTSNGGTVDEKCFSVDEIVQPDPPIALNWTLLNVSLTGIHADIQVRWEAPRNADIQKGWMVLEYELQYKEVNETKWKMMDPILTTSVPVYSLKVDKEYEVRVRSKQRNSGNYGEFSEVLYVTLPQMSQ
modifications: Fusion proteins
B2: the “cAMP levels (mean±SD)” value in assay [1] (setting [3]) was determined as 264±12 pmol cAMP/ml. The “fold by which PTH is more potent than the fusion (EC50 ratio)” value in assay [2] is around 18 fold.
